In US20220226375A1 (CRISPR THERAPEUTICS, published 2022):

B1: CTX-982 CAR (anti-CD33 CAR, Antibody C scFv VH-VL, CD28 co-stimulatory domain, CD3z) (other)
chain: EVQLVQSGAEVKKPGSSVKVSCKASGYTITDSNIHWVRQAPGQSLEWIGYIYPYNGGTDYNQKFKNRATLTVDNPTNTAYMELSSLRSEDTAFYYCVNGNPWLAYWGQGTLVTVSSGGGGSGGGGSGGGGSDIQLTQSPSTLSASVGDRVTITCRASESLDNYGIRFLTWFQQKPGKAPKLLMYAASNQGSGVPSRFSGSGSGTEFTLTISSLQPDDFATYYCQQTKEVPWSFGQGTKVEVKSAAAFVPVFLPAKPTTTPAPRPPTPAPTIASQPLSLRPEACRPAAGGAVHTRGLDFACDIYIWAPLAGTCGVLLLSLVITLYCNHRNRSKRSRLLHSDYMNMTPRRPGPTRKHYQPYAPPRDFAAYRSRVKFSRSADAPAYQQGQNQLYNELNLGRREEYDVLDKRRGRDPEMGGKPRRKNPQEGLYNELQKDKMAEAYSEIGMKGERRRGKGHDGLYQGLSTATKDTYDALHMQALPPR
B2: CTX-969 CAR (anti-CD33 CAR, Antibody B scFv VH-VL, CD28 co-stimulatory domain, CD3z) (other)
chain: QVQLVQSGAEVKKPGASVKVSCKASGYTFTNYDINWVRQAPGQGLEWIGWIYPGDGSTKYNEKFKAKATLTADTSTSTAYMELRSLRSDDTAVYYCASGYEDAMDYWGQGTTVTVSSGGGGGSGGGGSGGGGSDIQMTQSPSSLSASVGDRVTINCKASQDINSYLSWFQQKPGKAPKTLIYRANRLVDGVPSRFSGSGSGQDYTLTISSLQPEDFATYYCLQYDEFPLTFGGGTKVEIKSAAAFVPVFLPAKPTTTPAPRPPTPAPTIASQPLSLRPEACRPAAGGAVHTRGLDFACDIYIWAPLAGTCGVLLLSLVITLYCNHRNRSKRSRLLHSDYMNMTPRRPGPTRKHYQPYAPPRDFAAYRSRVKFSRSADAPAYQQGQNQLYNELNLGRREEYDVLDKRRGRDPEMGGKPRRKNPQEGLYNELQKDKMAEAYSEIGMKGERRRGKGHDGLYQGLSTATKDTYDALHMQALPPR
B3: CTX-982b CAR (anti-CD33 CAR, Antibody C scFv VH-VL, 41BB co-stimulatory domain, CD3z) (other)
chain: EVQLVQSGAEVKKPGSSVKVSCKASGYTITDSNIHWVRQAPGQSLEWIGYIYPYNGGTDYNQKFKNRATLTVDNPTNTAYMELSSLRSEDTAFYYCVNGNPWLAYWGQGTLVTVSSGGGGSGGGGSGGGGSDIQLTQSPSTLSASVGDRVTITCRASESLDNYGIRFLTWFQQKPGKAPKLLMYAASNQGSGVPSRFSGSGSGTEFTLTISSLQPDDFATYYCQQTKEVPWSFGQGTKVEVKSAAAFVPVFLPAKPTTTPAPRPPTPAPTIASQPLSLRPEACRPAAGGAVHTRGLDFACDIYIWAPLAGTCGVLLLSLVITLYCNHRNRKRGRKKLLYIFKQPFMRPVQTTQEEDGCSCRFPEEEEGGCELRVKFSRSADAPAYQQGQNQLYNELNLGRREEYDVLDKRRGRDPEMGGKPRRKNPQEGLYNELQKDKMAEAYSEIGMKGERRRGKGHDGLYQGLSTATKDTYDALHMQALPPR

Columns and labels:
[1] = biological target: T1, CD33 protein (AcroBiosystems) conjugated to biotin (UniProt P20138 18-259, biotinylated (site not stated)); assay: flow cytometry; cell-surface CAR on edited T cells labelled with biotinylated CD33 protein and streptavidin-APC
T1 construct: Soluble bought reagent used at 2 ug/uL with streptavidin-APC to label cell-surface anti-CD33 CAR; also called biotinylated CD33 protein, CD3-H82E7
Protocol: About one (1) week post electroporation, gene-edited T cells were analyzed by flow cytometry to assess the percentage of the cell population that expressed an anti-CD33 CAR. Labeling of cell-surface anti-CD33 CAR was done with a combination of a CD33 protein (AcroBiosystems) conjugated to biotin and a streptavidin-APC secondary reagent (FIG. 1A, FIG. 1B and FIG. 1C). […] In contrast, certain T cells generated with a TRAC and B2M gene disruption and a CAR construct did result in a high percentage of the population that expressed an anti-CD33 CAR. […] However, not all T cells prepared with a CAR construct had CAR expression. […] Indeed, this outcome was not altered by switching the CAR co-stimulatory domain (e.g., CTX-964 compared to CTX-964b).

[2] = biological target: CD33 on the surface of human cells (AML cell lines THP-1, KG-1, MV4-11; activated primary human T cells) (human, UniProt P20138 18-364); assay: cell-based or functional assay
Sequence of CD33 on the surface of human cells (AML cell lines THP-1, KG-1, MV4-11; activated primary human T cells) (P20138 18-364): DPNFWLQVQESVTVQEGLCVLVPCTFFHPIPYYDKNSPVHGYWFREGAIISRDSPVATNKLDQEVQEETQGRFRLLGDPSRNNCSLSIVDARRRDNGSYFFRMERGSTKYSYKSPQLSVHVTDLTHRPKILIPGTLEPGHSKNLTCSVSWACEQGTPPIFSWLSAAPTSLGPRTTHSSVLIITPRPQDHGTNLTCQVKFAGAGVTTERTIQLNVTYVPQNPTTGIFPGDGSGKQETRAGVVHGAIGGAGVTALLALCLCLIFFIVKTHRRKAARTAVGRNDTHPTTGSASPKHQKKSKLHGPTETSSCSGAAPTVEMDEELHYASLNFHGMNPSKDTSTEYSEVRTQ

T1 sequence (P20138 18-259 limits assumed): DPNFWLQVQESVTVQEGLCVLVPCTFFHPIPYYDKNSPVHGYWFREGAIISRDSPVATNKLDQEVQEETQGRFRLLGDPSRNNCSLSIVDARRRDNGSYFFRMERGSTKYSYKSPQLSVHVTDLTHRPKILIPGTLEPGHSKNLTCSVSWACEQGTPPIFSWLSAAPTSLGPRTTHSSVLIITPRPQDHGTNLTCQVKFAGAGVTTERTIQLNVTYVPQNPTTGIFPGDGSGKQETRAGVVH

| binding result [1] | percent cell lysis of CD33 KO MV4-11 cells (CD33-deficient comparison) at 1:1 ratio [2] | Binder |
| --- | --- | --- |
| binds | – | B1 |
| binds | – | B2 |
| – | > 60% | B3 |
